# Experimental data taken from US11819556B2, “Stabilized compositions of radionuclides and uses thereof” (RayzeBio, Inc., priority 2021, dated 2023).
# Marks after values point to notes of the source that are not given here.
# Assays:
# [1] = Dextran ratio optimization: radio-TLC purity; type: physicochemical; conditions: 25 μCi/ml
# Description: (§1) The mixture was kept at room temperature (25° C.). At different time points, radioactive components of the formulated dose were measured by radio-TLC as described in the table below: […]
# [2] = EGCg concentration: radio-TLC purity; type: physicochemical; conditions: 25 μCi/ml, 100 mM sodium ascorbate pH 5.80, 0.05 mg/ml DTPA, saline, 25° C.
# Description: as §1
substance,measurement,setting,value
"(2,2′,2″-(10-(2-4(R)-1-(((4R,7S,10S,13R,16S,19R)-13-((1H-indol-3-yl)methyl)-10-(4-aminobutyl)-4-(((1S,2R)-1-carboxy-2-hydroxypropyl)carbamoyl)-16-(4-hydroxybenzyl)-7-((R)-1-hydroxyethyl)-6,9,12,15,18-pentaoxo-1,2-dithia-5,8,11,14,17-pentaazacycloicosan-19-yl)amino)-1-oxo-3-phenylpropan-2-yl)amino)-2-oxoethyl)-1,4,7,10-tetraazacyclododecane-1,4,7-triyl)triacetate; actinium-225(3+)) [[^225Ac]Ac-DOTA-TATE]",Percentage of ^225Ac present in [^225Ac]Ac-DOTA-TATE,"[1]; Dextran 0% w/w, 0 hour, 100 mM sodium ascorbate, 0.05 mg/ml DTPA, saline, pH 5.80, 25° C.",99.90%
same,Percentage of ^225Ac present in [^225Ac]Ac-DOTA-TATE,"[1]; Dextran 0% w/w, 24 hours, 100 mM sodium ascorbate, 0.05 mg/ml DTPA, saline, pH 5.80, 25° C.",99.42%
same,Percentage of ^225Ac present in [^225Ac]Ac-DOTA-TATE,"[1]; Dextran 0% w/w, 48 hours, 100 mM sodium ascorbate, 0.05 mg/ml DTPA, saline, pH 5.80, 25° C.",98.73%
same,Percentage of ^225Ac present in [^225Ac]Ac-DOTA-TATE,"[1]; Dextran 0% w/w, 72 hours, 100 mM sodium ascorbate, 0.05 mg/ml DTPA, saline, pH 5.80, 25° C.",97.77%
same,Percentage of ^225Ac present in [^225Ac]Ac-DOTA-TATE,"[1]; Dextran 0% w/w, 96 hours, 100 mM sodium ascorbate, 0.05 mg/ml DTPA, saline, pH 5.80, 25° C.",97.13%
same,Percentage of ^225Ac present in [^225Ac]Ac-DOTA-TATE,"[1]; Dextran 0% w/w, 120 hours, non-homogeneous sampling, 100 mM sodium ascorbate, 0.05 mg/ml DTPA, saline, pH 5.80, 25° C.",98.09* %
same,Percentage of ^225Ac present in [^225Ac]Ac-DOTA-TATE,"[1]; Dextran 0% w/w, 144 hours, 100 mM sodium ascorbate, 0.05 mg/ml DTPA, saline, pH 5.80, 25° C.",94.64%
same,Percentage of ^225Ac present in [^225Ac]Ac-DOTA-TATE,"[1]; Dextran 3% w/w, 0 hour, 100 mM sodium ascorbate, 0.05 mg/ml DTPA, saline, pH 5.80, 25° C.",99.86%
same,Percentage of ^225Ac present in [^225Ac]Ac-DOTA-TATE,"[1]; Dextran 3% w/w, 24 hours, 100 mM sodium ascorbate, 0.05 mg/ml DTPA, saline, pH 5.80, 25° C.",98.62%
same,Percentage of ^225Ac present in [^225Ac]Ac-DOTA-TATE,"[1]; Dextran 3% w/w, 48 hours, 100 mM sodium ascorbate, 0.05 mg/ml DTPA, saline, pH 5.80, 25° C.",98.48%
same,Percentage of ^225Ac present in [^225Ac]Ac-DOTA-TATE,"[1]; Dextran 3% w/w, 72 hours, 100 mM sodium ascorbate, 0.05 mg/ml DTPA, saline, pH 5.80, 25° C.",97.91%
same,Percentage of ^225Ac present in [^225Ac]Ac-DOTA-TATE,"[1]; Dextran 3% w/w, 96 hours, 100 mM sodium ascorbate, 0.05 mg/ml DTPA, saline, pH 5.80, 25° C.",96.48%
same,Percentage of ^225Ac present in [^225Ac]Ac-DOTA-TATE,"[1]; Dextran 3% w/w, 120 hours, 100 mM sodium ascorbate, 0.05 mg/ml DTPA, saline, pH 5.80, 25° C.",96.67%
same,Percentage of ^225Ac present in [^225Ac]Ac-DOTA-TATE,"[1]; Dextran 3% w/w, 144 hours, 100 mM sodium ascorbate, 0.05 mg/ml DTPA, saline, pH 5.80, 25° C.",95.77%
same,Percentage of ^225Ac present in [^225Ac]Ac-DOTA-TATE,"[1]; Dextran 6% w/w, 0 hour, 100 mM sodium ascorbate, 0.05 mg/ml DTPA, saline, pH 5.80, 25° C.",100%
same,Percentage of ^225Ac present in [^225Ac]Ac-DOTA-TATE,"[1]; Dextran 6% w/w, 24 hours, 100 mM sodium ascorbate, 0.05 mg/ml DTPA, saline, pH 5.80, 25° C.",99.08%
same,Percentage of ^225Ac present in [^225Ac]Ac-DOTA-TATE,"[1]; Dextran 6% w/w, 48 hours, 100 mM sodium ascorbate, 0.05 mg/ml DTPA, saline, pH 5.80, 25° C.",98.83%
same,Percentage of ^225Ac present in [^225Ac]Ac-DOTA-TATE,"[1]; Dextran 6% w/w, 72 hours, 100 mM sodium ascorbate, 0.05 mg/ml DTPA, saline, pH 5.80, 25° C.",98.29%
same,Percentage of ^225Ac present in [^225Ac]Ac-DOTA-TATE,"[1]; Dextran 6% w/w, 96 hours, 100 mM sodium ascorbate, 0.05 mg/ml DTPA, saline, pH 5.80, 25° C.",96.99%
same,Percentage of ^225Ac present in [^225Ac]Ac-DOTA-TATE,"[1]; Dextran 6% w/w, 120 hours, 100 mM sodium ascorbate, 0.05 mg/ml DTPA, saline, pH 5.80, 25° C.",97.00%
same,Percentage of ^225Ac present in [^225Ac]Ac-DOTA-TATE,"[1]; Dextran 6% w/w, 144 hours, 100 mM sodium ascorbate, 0.05 mg/ml DTPA, saline, pH 5.80, 25° C.",96.41%
same,Percentage of ^225Ac present in [^225Ac]Ac-DOTA-TATE,"[1]; Dextran 10% w/w, no L-ascorbate, 0 hour, 25° C.",100%
same,Percentage of ^225Ac present in [^225Ac]Ac-DOTA-TATE,"[1]; Dextran 10% w/w, no L-ascorbate, 24 hours, 25° C.",95.38%
same,Percentage of ^225Ac present in [^225Ac]Ac-DOTA-TATE,"[1]; Dextran 10% w/w, no L-ascorbate, 48 hours, 25° C.",93.36%
same,Percentage of ^225Ac present in [^225Ac]Ac-DOTA-TATE,"[1]; Dextran 10% w/w, no L-ascorbate, 72 hours, 25° C.",89.11%
same,Percentage of ^225Ac present in [^225Ac]Ac-DOTA-TATE,"[1]; Dextran 10% w/w, no L-ascorbate, 96 hours, 25° C.",87.20%
same,Percentage of ^225Ac present in [^225Ac]Ac-DOTA-TATE,"[1]; Dextran 10% w/w, 0 hour, 100 mM sodium ascorbate, 0.05 mg/ml DTPA, saline, pH 5.80, 25° C.",99.67%
same,Percentage of ^225Ac present in [^225Ac]Ac-DOTA-TATE,"[1]; Dextran 10% w/w, 24 hours, 100 mM sodium ascorbate, 0.05 mg/ml DTPA, saline, pH 5.80, 25° C.",99.02%
same,Percentage of ^225Ac present in [^225Ac]Ac-DOTA-TATE,"[1]; Dextran 10% w/w, 48 hours, 100 mM sodium ascorbate, 0.05 mg/ml DTPA, saline, pH 5.80, 25° C.",98.75%
same,Percentage of ^225Ac present in [^225Ac]Ac-DOTA-TATE,"[1]; Dextran 10% w/w, 72 hours, 100 mM sodium ascorbate, 0.05 mg/ml DTPA, saline, pH 5.80, 25° C.",97.83%
same,Percentage of ^225Ac present in [^225Ac]Ac-DOTA-TATE,"[1]; Dextran 10% w/w, 96 hours, 100 mM sodium ascorbate, 0.05 mg/ml DTPA, saline, pH 5.80, 25° C.",96.42%
same,Percentage of ^225Ac present in [^225Ac]Ac-DOTA-TATE,"[1]; Dextran 10% w/w, 120 hours, 100 mM sodium ascorbate, 0.05 mg/ml DTPA, saline, pH 5.80, 25° C.",96.58%
same,Percentage of ^225Ac present in [^225Ac]Ac-DOTA-TATE,"[1]; Dextran 10% w/w, 144 hours, 100 mM sodium ascorbate, 0.05 mg/ml DTPA, saline, pH 5.80, 25° C.",95.37%
same,Percentage of ^225Ac present in [^225Ac]Ac-DOTA-TATE,"[2]; EGCg 0 mg/ml, 0 hour",99.90%
same,Percentage of ^225Ac present in [^225Ac]Ac-DOTA-TATE,"[2]; EGCg 0 mg/ml, 24 hours",99.42%
same,Percentage of ^225Ac present in [^225Ac]Ac-DOTA-TATE,"[2]; EGCg 0 mg/ml, 48 hours",98.73%
same,Percentage of ^225Ac present in [^225Ac]Ac-DOTA-TATE,"[2]; EGCg 0 mg/ml, 72 hours",97.77%
same,Percentage of ^225Ac present in [^225Ac]Ac-DOTA-TATE,"[2]; EGCg 0 mg/ml, 96 hours",97.13%
same,Percentage of ^225Ac present in [^225Ac]Ac-DOTA-TATE,"[2]; EGCg 0 mg/ml, 120 hours, non-homogeneous sampling",98.09* %
same,Percentage of ^225Ac present in [^225Ac]Ac-DOTA-TATE,"[2]; EGCg 0 mg/ml, 144 hours",94.64%
same,Percentage of ^225Ac present in [^225Ac]Ac-DOTA-TATE,"[2]; EGCg 0.5 mg/ml, 0 hour",99.61%
same,Percentage of ^225Ac present in [^225Ac]Ac-DOTA-TATE,"[2]; EGCg 0.5 mg/ml, 24 hours",98.92%
same,Percentage of ^225Ac present in [^225Ac]Ac-DOTA-TATE,"[2]; EGCg 0.5 mg/ml, 48 hours",98.48%
same,Percentage of ^225Ac present in [^225Ac]Ac-DOTA-TATE,"[2]; EGCg 0.5 mg/ml, 72 hours",97.97%
same,Percentage of ^225Ac present in [^225Ac]Ac-DOTA-TATE,"[2]; EGCg 0.5 mg/ml, 96 hours",96.44%
same,Percentage of ^225Ac present in [^225Ac]Ac-DOTA-TATE,"[2]; EGCg 0.5 mg/ml, 120 hours",95.65%
same,Percentage of ^225Ac present in [^225Ac]Ac-DOTA-TATE,"[2]; EGCg 0.5 mg/ml, 144 hours",93.04%
same,Percentage of ^225Ac present in [^225Ac]Ac-DOTA-TATE,"[2]; EGCg 1 mg/ml, 0 hour",99.76%
same,Percentage of ^225Ac present in [^225Ac]Ac-DOTA-TATE,"[2]; EGCg 1 mg/ml, 24 hours",99.14%
same,Percentage of ^225Ac present in [^225Ac]Ac-DOTA-TATE,"[2]; EGCg 1 mg/ml, 48 hours",98.83%
same,Percentage of ^225Ac present in [^225Ac]Ac-DOTA-TATE,"[2]; EGCg 1 mg/ml, 72 hours",98.04%
same,Percentage of ^225Ac present in [^225Ac]Ac-DOTA-TATE,"[2]; EGCg 1 mg/ml, 96 hours",97.15%
same,Percentage of ^225Ac present in [^225Ac]Ac-DOTA-TATE,"[2]; EGCg 1 mg/ml, 120 hours",94.82%
same,Percentage of ^225Ac present in [^225Ac]Ac-DOTA-TATE,"[2]; EGCg 1 mg/ml, 144 hours",95.65%
same,Percentage of ^225Ac present in [^225Ac]Ac-DOTA-TATE,"[2]; EGCg 3 mg/ml, 0 hour",99.81%
same,Percentage of ^225Ac present in [^225Ac]Ac-DOTA-TATE,"[2]; EGCg 3 mg/ml, 24 hours",98.57%
same,Percentage of ^225Ac present in [^225Ac]Ac-DOTA-TATE,"[2]; EGCg 3 mg/ml, 48 hours",98.00%
same,Percentage of ^225Ac present in [^225Ac]Ac-DOTA-TATE,"[2]; EGCg 3 mg/ml, 72 hours",96.55%
same,Percentage of ^225Ac present in [^225Ac]Ac-DOTA-TATE,"[2]; EGCg 3 mg/ml, 96 hours",96.42%
same,Percentage of ^225Ac present in [^225Ac]Ac-DOTA-TATE,"[2]; EGCg 3 mg/ml, 120 hours",96.05%
same,Percentage of ^225Ac present in [^225Ac]Ac-DOTA-TATE,"[2]; EGCg 3 mg/ml, 144 hours",90.71%
